Results published in patent publication US20230192900A1 (published 2023).

How the values were obtained:
[1] = target: T1, recombinant human CD9 long extracellular loop 2-human Fc fusion protein (10015-CD, R&D Systems) (human, UniProt P21926 112-195); assay: biolayer interferometry (Octet RED384), CD9 loop 2-human Fc captured on AHC biosensors, Fab at 10 µg/mL
T1 construct: Bought reagent; also called CD9-loop2; long extracellular loop 2 peptide; not shown: human Fc
T1 sequence: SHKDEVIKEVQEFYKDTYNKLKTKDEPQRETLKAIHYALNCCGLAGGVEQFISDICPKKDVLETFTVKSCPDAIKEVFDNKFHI
Description: CD9 contains two extracellular loops: a short extracellular loop (loop 1: 34-55 in SEQ ID NO:2) and a long extracellular loop (loop 2: 112-195 in SEQ ID NO:2). We used biolayer interferometry to assess binding of our panel of CD9 Fab-Y antibodies (selected for their ability to bind full-length cell-expressed CD9) to the long extracellular loop 2 peptide, using the Octet® RED384 System (ForteBio) with Anti-hlgG Fc Capture (AHC) Biosensors (ForteBio) at room temperature. Firstly, an array of 8 sensors was dipped in kinetics buffer (PBS 0.1%, BSA 0.02%, Tween 20) for 120 seconds to provide a baseline signal. Sensors were then moved to wells containing 200 μl of recombinant human CD9 long extracellular loop 2-human Fc fusion protein (10015-CD, R&D Systems®) at 2 μg/mL in kinetics buffer to immobilize the protein to the biosensor (100 seconds), followed by a second baseline step (180 seconds) in kinetics buffer to equilibrate the biosensors now coated with the CD9 long extracellular loop 2-human Fc fusion protein. No detachment of the peptide was observed during this step. Sensors were then dipped in wells containing one of the anti-CD9 Fab (10 μg/mL) to evaluate association of each antibody to CD9-loop2 (120 seconds), followed by dissociation in kinetics buffer (600 seconds). Anti-CD137 Fab-Y (11175) was used as negative control during the antibody association step. […]

human CD9 = target: T2, human CD9 (human, UniProt P21926 2-228); assay: selection on cells expressing full-length CD9; method not described
T2 construct: The cells expressing full-length CD9 that were used to select the antibodies are not described; In the functional assays CD9 stands on human PBMC; also called full-length cell-expressed CD9; Tetraspanin-29
T2 sequence: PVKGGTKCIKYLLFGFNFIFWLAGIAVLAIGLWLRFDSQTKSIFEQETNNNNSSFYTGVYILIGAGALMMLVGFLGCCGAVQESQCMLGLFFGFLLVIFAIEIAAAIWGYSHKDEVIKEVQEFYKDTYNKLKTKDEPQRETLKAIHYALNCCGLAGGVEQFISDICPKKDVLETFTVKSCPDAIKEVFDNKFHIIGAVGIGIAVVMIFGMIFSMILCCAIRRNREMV

binding result [1]: binds | binding result (human CD9): binds
B1: anti-CD9 Fab-Y antibody 7272 (Fab, V domains shown)
VH: QSLEESGGRLVTPGTPLTLTCTVSGFSLSSYAMGWVRQAPGKGLEWIGAIGSITATGYARWAKGRFSISKTSTTVDLKMTSPTTEDTATYFCAREIYVGSAYAFDIWGPGTLVTVSS
VL: AYDMTQTPASVEVAVGDTVTIKCQASQSISNYLAWYQQKPGQPPKLLIYLASTLASGVPSRFKGSGSGTEFTLTISDLECADAATYYCQQGYIDNVNKGFGGGTEVVVK
notes: also called VR7272
